How the values were obtained:
GR = biological target: T1, GR (Homo sapiens, UniProt P04150); assay: GR-mediated transactivation (MMTV reporter); assay type: cell-based
T1 construct: expressed in transfected cells; host or cells: H1299, PC-3 (pSG5-GR)
T1 sequence (P04150 1-777): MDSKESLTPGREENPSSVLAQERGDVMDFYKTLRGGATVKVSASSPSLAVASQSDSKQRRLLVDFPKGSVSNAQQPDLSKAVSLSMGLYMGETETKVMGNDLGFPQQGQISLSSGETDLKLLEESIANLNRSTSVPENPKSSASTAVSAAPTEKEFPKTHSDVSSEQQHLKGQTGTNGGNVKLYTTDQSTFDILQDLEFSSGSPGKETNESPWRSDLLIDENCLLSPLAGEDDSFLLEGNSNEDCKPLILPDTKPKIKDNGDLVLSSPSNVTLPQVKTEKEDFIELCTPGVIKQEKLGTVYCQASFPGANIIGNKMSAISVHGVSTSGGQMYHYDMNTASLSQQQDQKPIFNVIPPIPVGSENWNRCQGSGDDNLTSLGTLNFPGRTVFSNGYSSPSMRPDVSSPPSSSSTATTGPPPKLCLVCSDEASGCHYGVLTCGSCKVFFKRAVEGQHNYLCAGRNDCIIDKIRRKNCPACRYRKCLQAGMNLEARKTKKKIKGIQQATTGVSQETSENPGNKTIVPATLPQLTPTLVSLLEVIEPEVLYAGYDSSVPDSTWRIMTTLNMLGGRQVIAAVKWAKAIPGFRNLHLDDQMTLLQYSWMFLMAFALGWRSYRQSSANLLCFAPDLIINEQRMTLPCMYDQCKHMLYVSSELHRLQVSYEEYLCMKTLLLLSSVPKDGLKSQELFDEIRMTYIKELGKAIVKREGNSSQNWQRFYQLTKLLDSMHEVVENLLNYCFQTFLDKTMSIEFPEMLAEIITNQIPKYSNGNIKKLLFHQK
Description: To eliminate the potential artificial effects caused by overexpression of exogenous ER, T47D cells were used as a model to test the TR2 suppression effect on the endogenous ER-mediated transactivation. T47D cells were transfected with 1 μg of ERE-CAT reporter plasmid together with increasing amounts of the TR2 expression plasmid. […] All of the cells also were transfected with a galactosidase expression plasmid, pCMV-β-gal to normalize the transfection efficiency. As expected, the TR2 can still repress the endogenous ER-mediated ERE-CAT activity (FIG. 8B). For a control, the potential suppression effect of the TR2 on other steroid receptors-mediated transactivation was also tested, such as PR or GR. H1299 cells were co-transfected with 1 μg of MMTV-CAT reporter plasmid and 1 μg of PR or GR expression plasmid together with increasing amounts of the TR2 expression vector. […] AU of the cells also were transfected with a β-galactosidase expression plasmid, pCMV-β-gal to normalize the transfection efficiency.
AR is known to be highly involved in prostate cancer progression, and both TR2 and AR are expressed in prostate cancer, therefore the TR2 effect on AR transactivation activity was analyzed.

PR = assay: Endogenous PR expression in T47D cells (Northern / Western); assay type: cell-based, human
Description: The method was used as previously described, Lee & Chang. (1996) J. Biol. Chem. 271. 10405-10412, with some modifications. Briefly. 5 μg of pCMV-TR2 was transiently transfected into T47D cells and lysed in RIPA buffer (10 mM sodium phosphate, pH 7.0. 150 mM NaCL, 2 mM EDT A. 1% (w/v) Nonidet P-40, 0.1% (w/v) SDS. 1% (w/v) sodium deoxycholate) with freshly adding proteinase inhibitors. The soluble protein was quantified using the Bio-Rad Protein Assay reagent (Bio-Rad Laboratories) and 50 μg soluble proteins were loaded onto SDS/10% PAGE and then transferred to Immobion-P transfer membrane (Millipore). After the blocking reaction overnight, the membrane was incubated with […] anti-PR polyclonal antibody (H-190. Santa Cruz) in PBS(−) containing 0.1% Skim milk for 2 h at room temperature. The membrane was washed and then incubated in 15 μCi 125I] of protein-A (DuPont NEN)/30 ml of PBS(−) containing 0.1% Skim milk for 1 h at room temperature. The western blots were autoradiographed and quantitated by using Phosphorlmager.
RNA isolation and Northern blot analysis were performed as previously described. Young, et al., J. Biol. Chem. 273,20877-20885 (1998).
Next it was determined if TR2 could repress the ER endogenous target gene expression. PR was chosen because it is well studied as an E2-ER target gene in T47D cells. Misrahi et al., Biochem. Biophys. Res. Commun. 143, 740-748 (1987). […] Cells were then used for RNA isolation (Northern blot analysis) and lysate protein extraction (Western blot analysis). For RNA analysis, total RNAs were isolated, and Northern blots were performed using [32P] labeled PR cDNA probes. The membrane was autoradiographed. For Protein Western blot analysis, cells lysates were prepared and PR proteins were visualized by radioimmunoblot. The membrane was autoradiographed to Phosphorimager and was quantitated by ImageQuant software.

MCF7-TR2 cells = assay: MTT growth assay, MCF7-TR2 cells; assay type: cell-based
Description: (A) Growth assays were performed by MTT method as instructed by manufacturer (Sigma). 5×10^3 MCF7-pBIG and MCF7-TR2 cells were seeded in 24-well plates and incubated in RPMI with 10% CD-FCS for 48 h. […] After 3- and 5-day treatment, cells were harvested for MTT assay. Data represents the relative folds of MTT O.D.570 values at day 5 divided by that at day 3. […] Cells were then trypsinized and fixed overnight in 70% Ethanol. After cells were incubated with 1 mg/ml RNase A (Sigma) and propidium iodide (Roche Molecular Biochemicals), the DNA contents of cells were measured by a flow cytometry. (C) Percentage of growth suppression by TR2. MCF7-TR2 cells were seeded at 5×10^3 cells per well in 24-well plates. […] The treatments were changed every two days. The indices of cell growth were determined by MTT assay. The MTT values from cells without doxycycline were set as 100% in each kind of treatment. Values are represented by the percentage of growth suppression from cells with doxycycline to that without doxycycline.

MCF-7-TR4 cells = assay: MCF-7 cells growth assay (cell counting); assay type: cell-based; settings: MCF-7-TR4 cells (E2 also in MCF-7-pBIG); 10 nM E2; Dox
Description: MCF-7-TR4 and MCF-7-pBIG cells, which were deprived of estrogen by culturing in phenol-free DMEM medium supplement with 10% charcol-stripped FBS for 4 days, were plated at 10^4 cells/well into 24-well plate. […] Cells were trypsinized at the specified time points and counted with a hemocytometer to determine cell density per sample.

B1: TR2: human testicular orphan nuclear receptor 2, 603 amino acids (protein, UniProt P13056 1-603, looked up)
chain: MATIEEIAHQIIEQQMGEIVTEQQTGQKIQIVTALDHNTQGKQFILTNHDGSTPSKVILARQDSTPGKVFLTTPDAAGVNQLFFTTPDLSAQHLQLLTDNSPDQGPNKVFDLCVVCGDKASGRHYGAVTCEGCKGFFKRSIRKNLVYSCRGSKDCIINKHHRNRCQYCRLQRCIAFGMKQDSVQCERKPIEVSREKSSNCAASTEKIYIRKDLRSPLTATPTFVTDSESTRSTGLLDSGMFMNIHPSGVKTESAVLMTSDKAESCQGDLSTLANVVTSLANLGKTKDLSQNSNEMSMIESLSNDDTSLCEFQEMQTNGDVSRAFDTLAKALNPGESTACQSSVAGMEGSVHLITGDSSINYTEKEGPLLSDSHVAFRLTMPSPMPEYLNVHYIGESASRLLFLSMHWALSIPSFQALGQENSISLVKAYWNELFTLGLAQCWQVMNVATILATFVNCLHNSLQQDKMSTERRKLLMEHIFKLQEFCNSMVKLCIDGYEYAYLKAIVLFSPDHPSLENMEQIEKFQEKAYVEFQDYITKTYPDDTYRLSRLLLRLPALRLMNATITEELFFKGLIGNIRIDSVIPHILKMEPADYNSQIIGHSI
modifications: full-length
notes: human testicular orphan nuclear receptor 2, 603 amino acids
- GR-mediated transactivation (MMTV-CAT) (GR; H1299 cells, 10^−8 M glucocorticoid, increasing TR2): little effect
- GR-mediated transactivation (MMTV-CAT) (GR; PC-3 cells, 10 nM dexamethasone, pCMV-TR2): less suppression effect
- GR-mediated transcription (MMTV-CAT) (GR; T47D cells, Example 2): marginal effect
- E2-induced PR expression at mRNA and protein levels (PR; T47D cells and MCF7 cells, Example 2): repress
- Expression of endogenous PR mRNA (PR; T47D cells transfected with pCMV-TR2, 10 nM E2): clearly repressed
- Endogenous PR expression (Western blot) (PR; T47D cells, similar in MCF7): repress
- Cell growth suppressed by TR2, compared to cells without doxycycline (MCF7-TR2 cells; all-trans retinoic acid treated cells (all-trans RA)): 29-45%
- Cell growth suppressed by TR2, compared to cells without doxycycline (MCF7-TR2 cells; presence of E2, 6- and 8-day treatments): 71-72%
- Cell growth suppressed by TR2, compared to cells without doxycycline (MCF7-TR2 cells; under 5 μM tamoxifen treatment): 8-9%

B2: TR4: human testicular orphan nuclear receptor 4, SEQ ID NO:16; expressed from plasmid or in vitro translated (protein)
chain: MTSPSPRIQIISTDSAVASPQRIQGSEPASGPLSVFTSLNKEKIVTDQQTGQKIQIVTAVDASGSPKQQFILTSPDGAGTGKVILASPETSSAKQLIFTTSDNLVPGRIQIVTDSASVERLLGKTDVQRPQVVEYCVVCGDKASGRHYGAVSCEGCKGFFKRSVRKNLTYSCRSSQDCIINKHHRNRCQFCRLKKCLEMGMKMESVQSERKPFDVQREKPSNCAASTEKIYIRKDLRSPLIATPTFVADKDGARQTGLLDPGMLVNIQQPLIREDGTVLLATDSKAETSQGALGTLANVVTSLANLSESLNNGDTSEIQPEDQSASEITRAFDTLAKALNTTDSSSSPSLADGIDTSGGGSIHVISRDQSTPIIEVEGPLLSDTHVTFKLTMPSPMPEYLNVHYICESASRLLFLSMHRARSIPAFQGLGQDCNTSLVRACWNELFTLGLAQCAQVMSLSTILAAIVNHLQNSIQEDKLSGDRIKQVMEHIWKLQEFCNSMANWDIDGYEYAYLKAIVLFSPDHPGLTSTSQIEKFQEKAQMELQDYVQKTYSEDTYRLARILVRLPALRLMSSNITEELFFTGLIGNVSIDSIIPYILKMETAEYNGQITGVSL
- Cell growth (cell number) (MCF-7-TR4 cells): repress

Reference: patent publication US20030235860A1, “Interactions between AR, ER, TR2, and TR4” (priority 1999, published 2003)
